In the supplement of paper PMC9112550, “Optimization of the antimicrobial peptide Bac7 by deep mutational scanning” (BMC Biology, 2022):

System: Escherichia coli TOP10
Experiment: shrunken log2 fold change of peptide-encoding DNA abundance (4.5 h post-induction vs induction); higher = less antimicrobial activity (less host growth inhibition)
Details: time post-induction: 4.5 h; library: site-saturation at positions 5, 18, 19, 20
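Also: peptides expressed intracellularly from a pBAD plasmid library in pooled LB shake-flask culture, induced with 0.3% L-arabinose, DNA abundance read by NGS, three biological replicates, DESeq2 with apeglm shrinkage.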

Going from RRIRIRPPRLPRPRPRPKLAPRP to RRIRGRPPRLPRPRPRPTSIPRP, the “shrunken log2 fold change” value rises from -0.117 to 0.129.

First: RRIRTRPPRLPRPRPRPMWNPRP
Second: RRIRPRPPRLPRPRPRPIGLPRP
The “shrunken log2 fold change” value of the first is lower: -0.418 for the first, 0.155 for the second.

RRIRCRPPRLPRPRPRPEYEPRP and RRIRDRPPRLPRPRPRPISIPRP are within 0.2 log units of each other in “shrunken log2 fold change” value: -0.108 for the first, 0.0218 for the second.

RRIRCRPPRLPRPRPRPTWVPRP and RRIRRRPPRLPRPRPRPLHSPRP are within 0.2 log units of each other in “shrunken log2 fold change” value: 0.342 for the first, 0.357 for the second.

Compared with RRIRRRPPRLPRPRPRPRSFPRP, RRIRLRPPRLPRPRPRPFPAPRP is lower in “shrunken log2 fold change” value: 0.401 for the first, -0.094 for the second.

RRIRDRPPRLPRPRPRPGPMPRP and RRIRWRPPRLPRPRPRPDNNPRP are within 0.2 log units of each other in “shrunken log2 fold change” value: -0.00245 for the first, -0.0431 for the second.

Going from RRIRWRPPRLPRPRPRPTGYPRP to RRIRHRPPRLPRPRPRPPGEPRP, the “shrunken log2 fold change” value rises from -0.145 to 0.418.

RRIRPRPPRLPRPRPRPQWTPRP and RRIRHRPPRLPRPRPRPTHVPRP are within 0.2 log units of each other in “shrunken log2 fold change” value: -0.0535 for the first, 0.0105 for the second.

Going from RRIRMRPPRLPRPRPRPDRSPRP to RRIRARPPRLPRPRPRPAARPRP, the “shrunken log2 fold change” value rises from -0.178 to 0.828.

Compared with RRIRMRPPRLPRPRPRPMFHPRP, RRIRLRPPRLPRPRPRPWHPPRP is higher in “shrunken log2 fold change” value: -0.244 for the first, -0.0174 for the second.

First: RRIRGRPPRLPRPRPRPDIAPRP
Second: RRIRTRPPRLPRPRPRPRENPRP
The “shrunken log2 fold change” value of the first is higher: 0.782 for the first, 0.277 for the second.

Compared with RRIRQRPPRLPRPRPRPVNHPRP, RRIRCRPPRLPRPRPRPIMRPRP is higher in “shrunken log2 fold change” value: -0.212 for the first, 0.415 for the second.

Going from RRIRMRPPRLPRPRPRPMHNPRP to RRIRSRPPRLPRPRPRPGIAPRP, the “shrunken log2 fold change” value rises from 0.0989 to 0.409.

Going from RRIRMRPPRLPRPRPRPSRQPRP to RRIRRRPPRLPRPRPRPRFSPRP, the “shrunken log2 fold change” value falls from 0.956 to 0.425.

First: RRIRMRPPRLPRPRPRPNHSPRP
Second: RRIRCRPPRLPRPRPRPAWWPRP
The “shrunken log2 fold change” value of the first is lower: -0.38 for the first, 0.902 for the second.

Compared with RRIRWRPPRLPRPRPRPAALPRP, RRIRKRPPRLPRPRPRPNTYPRP is lower in “shrunken log2 fold change” value: 0.257 for the first, 0.0436 for the second.

First: RRIRHRPPRLPRPRPRPQRPPRP
Second: RRIRWRPPRLPRPRPRPVSWPRP
The “shrunken log2 fold change” value of the first is lower: 0.183 for the first, 0.782 for the second.

RRIRFRPPRLPRPRPRPVTGPRP and RRIRQRPPRLPRPRPRPQAAPRP are within 0.2 log units of each other in “shrunken log2 fold change” value: 0.0131 for the first, 0.0499 for the second.

First: RRIRIRPPRLPRPRPRPFMIPRP
Second: RRIRHRPPRLPRPRPRPQKIPRP
The “shrunken log2 fold change” value of the first is lower: -0.73 for the first, 0.0342 for the second.

First: RRIRPRPPRLPRPRPRPVKLPRP
Second: RRIRWRPPRLPRPRPRPMELPRP
The “shrunken log2 fold change” value of the first is lower: -0.0669 for the first, 1.2 for the second.

Going from RRIRPRPPRLPRPRPRPMTDPRP to RRIRHRPPRLPRPRPRPFWFPRP, the “shrunken log2 fold change” value falls from 0.0653 to -0.382.

RRIRYRPPRLPRPRPRPYGMPRP and RRIRFRPPRLPRPRPRPKVNPRP are within 0.2 log units of each other in “shrunken log2 fold change” value: -0.438 for the first, -0.266 for the second.

First: RRIRFRPPRLPRPRPRPKVAPRP
Second: RRIRQRPPRLPRPRPRPSRIPRP
The “shrunken log2 fold change” value of the first is higher: 0.192 for the first, -0.305 for the second.

RRIRIRPPRLPRPRPRPDMAPRP and RRIRYRPPRLPRPRPRPPVNPRP are within 0.2 log units of each other in “shrunken log2 fold change” value: -0.0603 for the first, -0.153 for the second.

Compared with RRIRMRPPRLPRPRPRPSHGPRP, RRIRYRPPRLPRPRPRPSNFPRP is lower in “shrunken log2 fold change” value: 0.385 for the first, -0.368 for the second.

Going from RRIRTRPPRLPRPRPRPKSYPRP to RRIRPRPPRLPRPRPRPGDNPRP, the “shrunken log2 fold change” value rises from -0.364 to -0.00764.

First: RRIRIRPPRLPRPRPRPFAWPRP
Second: RRIRKRPPRLPRPRPRPPTLPRP
The “shrunken log2 fold change” value of the first is lower: 0.00684 for the first, 1.53 for the second.

RRIRRRPPRLPRPRPRPYWGPRP and RRIRPRPPRLPRPRPRPWRFPRP are within 0.2 log units of each other in “shrunken log2 fold change” value: 0.133 for the first, 0.212 for the second.

First: RRIRARPPRLPRPRPRPQIMPRP
Second: RRIRGRPPRLPRPRPRPFCEPRP
The “shrunken log2 fold change” value of the first is lower: 0.0849 for the first, 0.403 for the second.

Going from RRIRERPPRLPRPRPRPKRFPRP to RRIRERPPRLPRPRPRPFMYPRP, the “shrunken log2 fold change” value falls from -0.0239 to -0.551.

Compared with RRIRARPPRLPRPRPRPEDMPRP, RRIRRRPPRLPRPRPRPQMRPRP is higher in “shrunken log2 fold change” value: 0.816 for the first, 1.05 for the second.

Compared with RRIRCRPPRLPRPRPRPWPRPRP, RRIRNRPPRLPRPRPRPHCAPRP is lower in “shrunken log2 fold change” value: 0.398 for the first, 0.0341 for the second.

Going from RRIRLRPPRLPRPRPRPTLGPRP to RRIRMRPPRLPRPRPRPPSRPRP, the “shrunken log2 fold change” value rises from 0.222 to 1.01.

Compared with RRIRERPPRLPRPRPRPENMPRP, RRIRSRPPRLPRPRPRPSVHPRP is lower in “shrunken log2 fold change” value: 0.000515 for the first, -0.352 for the second.

Compared with RRIRARPPRLPRPRPRPQGQPRP, RRIRHRPPRLPRPRPRPMDFPRP is higher in “shrunken log2 fold change” value: -0.2 for the first, 3.65 for the second.

Going from RRIRNRPPRLPRPRPRPWQCPRP to RRIRQRPPRLPRPRPRPAWQPRP, the “shrunken log2 fold change” value rises from -0.108 to 0.147.

Compared with RRIRWRPPRLPRPRPRPGYFPRP, RRIRRRPPRLPRPRPRPRGHPRP is higher in “shrunken log2 fold change” value: -0.152 for the first, 2.95 for the second.

In the case of RRIRFRPPRLPRPRPRPITVPRP, the “shrunken log2 fold change” value is reported as -0.177.
